Assay results published in patent US20180000963A1 (HELIX BIOPHARMA, published 2018).
Several values for one entry are separate records, joined by “and”; a condition that tells them apart may be missing. Equal values may be shown once.

B1: CEACAM6 (carcinoembryonic antigen-related cell adhesion molecule 6) on the surface of human tumor cell lines (receptor)
chain: KLTIESTPFNVAEGKEVLLLAHNLPQNRIGYSWYKGERVDGNSLIVGYVIGTQQATPGPAYSGRETIYPNASLLIQNVTQNDTGFYTLQVIKSDLVNEEATGQFHVYPELPKPSISSNNSNPVEDKDAVAFTCEPEVQNTTYLWWVNGQSLPVSPRLQLSNGNMTLTLLSVKRNDAGSYECEIQNPASANRSDPVTLNVLYGPDVPTISPSKANYRPGENLNLSCHAASNPPAQYSWFINGTFQQSTQELFIPNITVNNSGSYMCQAHNSATGLNRTTVTMITVSG
notes: whole, on cells; also called CEACAM6 antigen; NCA
B2: AFAIKL2 antibody (single-domain camelid antibody fragment) (VHH)
VHH: DVQLQASGGGVVQPGGSLRLSCAAHDPIFDKNLMGWGRQAPGKQREYVATISGSGGTNYASSVEGRFTISRDNAKKTVYLQMNDLKPEDTAVYYCNSAFAIWGQGTQVTVSS
notes: Expressed in E. coli BL21 (DE3) pT7-7; also called AFAIKL2-tag; native single domain antibody

How the values were obtained:
[1] = target: T1, L-DOS47 (anti-CEACAM6-urease conjugate); AFAIKL2 antibody conjugated to Jack bean urease through the SIAB … (Jack bean (Canavalia ensiformis), UniProt P07374 1-840, primary amines linked through the SIAB linkage to urease cysteines); activation sites Lys76, Met1 (N-terminal amine), Lys44, Lys32; cysteine thiols linked through the SIAB linkage to AFAIKL2; …); assay: whole-cell binding assay, ZR-75-30 cells
T1 construct: Chemical conjugate, not a fusion; Hexameric urease (six ~91 kDa subunits) carries 0-4 AFAIKL2 per subunit; In the ECL assays it was labelled with ruthenium-NHS-ester (Sulfo-Tag); also called antibody-urease conjugate; AFAIKL2-urease

[2] = target: T2, DOS47 (Jack bean urease, unconjugated) (Jack bean (Canavalia ensiformis), UniProt P07374 1-840); assay: whole-cell binding assay (ammonia read-out) on BxPC-3, Capan-1, ZR-75-30, LS174T and MDA-MB231 cells
T2 construct: Purified from jack bean; hexamer of six identical subunits; also called HPU; high purity urease

[3] = target: B1; assay: cell-based ECL competition; unlabelled competitor against L-DOS47-tag (1 µg/mL) on BxPC-3 cells

T1 sequence (P07374 whole entry, chain 1 of 2, the tested form may be a part): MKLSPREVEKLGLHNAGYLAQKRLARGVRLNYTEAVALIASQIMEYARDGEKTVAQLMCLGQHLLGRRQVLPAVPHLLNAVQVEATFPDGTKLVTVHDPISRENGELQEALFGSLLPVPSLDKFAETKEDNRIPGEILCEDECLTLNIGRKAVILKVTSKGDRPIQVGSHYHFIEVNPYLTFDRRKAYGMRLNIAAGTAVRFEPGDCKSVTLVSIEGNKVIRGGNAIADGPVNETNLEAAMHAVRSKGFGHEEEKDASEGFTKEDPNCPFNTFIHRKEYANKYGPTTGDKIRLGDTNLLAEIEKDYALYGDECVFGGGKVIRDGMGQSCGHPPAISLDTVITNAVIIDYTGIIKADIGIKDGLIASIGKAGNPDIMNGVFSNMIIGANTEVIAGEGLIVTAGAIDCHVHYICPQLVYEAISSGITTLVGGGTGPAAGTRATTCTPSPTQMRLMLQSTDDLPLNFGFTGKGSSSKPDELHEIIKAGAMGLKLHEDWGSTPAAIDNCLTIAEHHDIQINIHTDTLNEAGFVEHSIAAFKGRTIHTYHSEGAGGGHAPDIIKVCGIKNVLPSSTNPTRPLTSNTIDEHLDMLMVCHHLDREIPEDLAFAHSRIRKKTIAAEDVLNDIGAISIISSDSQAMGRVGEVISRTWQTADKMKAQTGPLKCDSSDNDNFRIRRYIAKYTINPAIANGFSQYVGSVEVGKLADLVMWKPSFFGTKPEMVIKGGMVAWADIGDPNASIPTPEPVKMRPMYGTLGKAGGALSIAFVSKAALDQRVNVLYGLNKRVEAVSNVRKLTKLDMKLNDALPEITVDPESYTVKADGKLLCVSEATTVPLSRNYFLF
T1 sequence (VHH, as listed by the source limits assumed, chain 2 of 2): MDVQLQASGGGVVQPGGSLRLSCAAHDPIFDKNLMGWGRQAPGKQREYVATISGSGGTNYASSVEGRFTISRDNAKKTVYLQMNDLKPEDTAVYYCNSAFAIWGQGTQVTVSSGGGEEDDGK
T2 sequence (P07374 whole entry): as the sequence (P07374 whole entry, chain 1 of 2, the tested form may be a part) above

Row | Binder | binding result [1] | binding result [2] | IC50 [3]
1 | B1 | binds | no binding | 
2 | B2 |  |  | ~20 µg/mL and ~1.55 µM
